{
  "source": "patent US20240190939A1",
  "about": "(SHATTUCK LABS, published 2024)",
  "binders": {"B1": {"name": "human TIGIT-Fc-OX40L chimeric protein (Fc fusion)", "chain": "MMTGTIETTGNISAEKGGSIILQCHLSSTTAQVTQVNWEQQDQLLAICNADLGWHISPSFKDRVAPGPGLGLTLQSLTVNDTGEYFCIYHTYPDGTYTGRIFLEVLESSVAEHGARFQIPSKYGPPCPPCPAPEFLGGPSVFLFPPKPKDQLMISRTPEVTCVVVDVSQEDPEVQFNWYVDGVEVHNAKTKPREEQFNSTYRVVSVLTVLHQDWLSGKEYKCKVSSKGLPSSIEKTISNATGQPREPQVYTLPPSQEEMTKNQVSLTCLVKGFYPSDIAVEWESNGQPENNYKTTPPVLDSDGSFFLYSRLTVDKSRWQEGNVFSCSVLHEALHNHYTQKSLSLSLGKIEGRMDQVSHRYPRIQSIKVQFTEYKKEKGFILTSQKEDEIMKVQNNSVIINCDGFYLISLKGYFSQEVNISLHYQKDEEPLFQLKKVRSVNSLMVASLTYKDKVYLNVTTDNTSLDDFHVNGGELILIHQNPGEFCVL", "notes": "also called hTIGIT-Fc-OX40L"}, "B2": {"name": "human TIGIT-Fc-LIGHT chimeric protein (Fc fusion)", "chain": "MMTGTIETTGNISAEKGGSIILQCHLSSTTAQVTQVNWEQQDQLLAICNADLGWHISPSFKDRVAPGPGLGLTLQSLTVNDTGEYFCIYHTYPDGTYTGRIFLEVLESSVAEHGARFQIPSKYGPPCPPCPAPEFLGGPSVFLFPPKPKDQLMISRTPEVTCVVVDVSQEDPEVQFNWYVDGVEVHNAKTKPREEQFNSTYRVVSVLTVLHQDWLSGKEYKCKVSSKGLPSSIEKTISNATGQPREPQVYTLPPSQEEMTKNQVSLTCLVKGFYPSDIAVEWESNGQPENNYKTTPPVLDSDGSFFLYSRLTVDKSRWQEGNVFSCSVLHEALHNHYTQKSLSLSLGKIEGRMDLQLHWRLGEMVTRLPDGPAGSWEQLIQERRSHEVNPAAHLTGANSSLTGSGGPLLWETQLGLAFLRGLSYHDGALVVTKAGYYYIYSKVQLGGVGCPLGLASTITHGLYKRTPRYPEELELLVSQQSPCGRATSSSRVWWDSSFLGGVVHLEAGEKVVVRVLDERLVRLRDGTRSYFGAFMV", "notes": "also called hTIGIT-Fc-LIGHT; hTIGIT-1-Fc-LIGHT"}, "B3": {"name": "murine CD172a(SIRPα)-Fc-LIGHT chimeric protein (Fc fusion)", "chain 1": "KELKVTQPEKSVSVAAGDSTVLNCTLTSLLPVGPIRWYRGVGPSRLLIYSFAGEYVPRIRNVSDTTKRNNMDFSIRISNVTPADAGIYYCVKFQKGSSEPDTEIQSGGGTEVYVLAKPSPPEVSGPADRGIPDQKVNFTCKSHGFSPRNITLKWFKDGQELHPLETTVNPSGKNVSYNISSTVRVVLNSMDVNSKVICEVAHITLDRSPLRGIANLSNFIRVSPTVKVTQQSPTSMNQVNLTCRAERFYPEDLQLIWLENGNVSRNDTPKNLTKNTDGTYNYTSLFLVNSSAHREDVVFTCQVKHDQQPAITRNHTVLGFAHSSDQGSMQTFPDNNATHNWN", "chain 2": "LHQRLGDIVAHLPDGGKGSWEKLIQDQRSHQANPAAHLTGANASLIGIGGPLLWETRLGLAFLRGLTYHDGALVTMEPGYYYVYSKVQLSGVGCPQGLANGLPITHGLYKRTSRYPKELELLVSRRSPCGRANSSRVWWDSSFLGGVVHLEAGEEVVVRVPGNRLVRPRDGTRSYFGAFMV"}, "B4": {"name": "murine TIGIT-Fc-OX40L chimeric protein (Fc fusion)", "chain 1": "TIDTKRNISAEEGGSVILQCHFSSDTAEVTQVDWKQQDQLLAIYSVDLGWHVASVFSDRVVPGPSLGLTFQSLTMNDTGEYFCTYHTYPGGIYKGRIFLKVQESSDDRNGLAQFQTAPLG", "chain 2": "SSSPAKDPPIQRLRGAVTRCEDGQLFISSYKNEYQTMEVQNNSVVIKCDGLYIIYLKGSFFQEVKIDLHFREDHNPISIPMLNDGRRIVFTVVASLAFKDKVYLTVNAPDTLCEHLQINDGELIVVQLTPGYCAPEGSYHSTVNQVPL"}},
  "key": {"Galectin-1": {"target": "Galectin-1 (human, UniProt P09382 2-135, limits assumed)", "sequence (P09382 2-135 limits assumed)": "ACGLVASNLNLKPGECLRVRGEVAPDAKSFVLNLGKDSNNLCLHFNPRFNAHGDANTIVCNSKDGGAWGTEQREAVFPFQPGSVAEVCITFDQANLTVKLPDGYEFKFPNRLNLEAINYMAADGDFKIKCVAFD", "test": "microarray of about 6,000 human membrane proteins"}, "NECTIN4": {"target": "T1, NECTIN4 (human, UniProt Q96NY8)", "T1 construct": "on the microarray of human membrane proteins; also called Nectin Cell Adhesion Molecule 4", "T1 sequence (looked up)": "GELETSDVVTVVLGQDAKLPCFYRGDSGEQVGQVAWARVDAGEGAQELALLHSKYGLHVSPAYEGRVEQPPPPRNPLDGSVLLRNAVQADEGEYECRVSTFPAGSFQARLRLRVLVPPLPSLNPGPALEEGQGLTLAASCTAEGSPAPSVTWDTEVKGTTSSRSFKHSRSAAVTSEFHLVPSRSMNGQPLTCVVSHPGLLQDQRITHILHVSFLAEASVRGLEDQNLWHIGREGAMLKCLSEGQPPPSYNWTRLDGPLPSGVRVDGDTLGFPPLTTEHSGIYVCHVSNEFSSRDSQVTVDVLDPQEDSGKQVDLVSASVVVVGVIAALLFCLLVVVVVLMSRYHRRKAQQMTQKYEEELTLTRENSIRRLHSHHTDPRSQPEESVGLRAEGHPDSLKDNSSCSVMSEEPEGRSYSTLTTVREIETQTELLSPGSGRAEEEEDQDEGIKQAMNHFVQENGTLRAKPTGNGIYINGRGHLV", "test": "microarray of about 6,000 human membrane proteins"}, "TNFRSF4": {"target": "T2, TNFRSF4", "T2 construct": "also called TNF Receptor Superfamily Member 4", "T2 chain": "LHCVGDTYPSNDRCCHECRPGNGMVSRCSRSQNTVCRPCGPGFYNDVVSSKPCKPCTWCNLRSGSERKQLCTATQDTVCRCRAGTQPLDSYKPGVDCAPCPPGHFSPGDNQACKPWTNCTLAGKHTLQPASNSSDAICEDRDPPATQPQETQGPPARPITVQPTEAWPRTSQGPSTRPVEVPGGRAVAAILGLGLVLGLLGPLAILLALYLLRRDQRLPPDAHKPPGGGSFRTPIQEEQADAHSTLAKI", "test": "microarray of about 6,000 human membrane proteins"}, "PVR": {"target": "T3, PVR (human, UniProt P15151)", "T3 construct": "on the microarray of human membrane proteins; also called Poliovirus Receptor", "T3 sequence (looked up)": "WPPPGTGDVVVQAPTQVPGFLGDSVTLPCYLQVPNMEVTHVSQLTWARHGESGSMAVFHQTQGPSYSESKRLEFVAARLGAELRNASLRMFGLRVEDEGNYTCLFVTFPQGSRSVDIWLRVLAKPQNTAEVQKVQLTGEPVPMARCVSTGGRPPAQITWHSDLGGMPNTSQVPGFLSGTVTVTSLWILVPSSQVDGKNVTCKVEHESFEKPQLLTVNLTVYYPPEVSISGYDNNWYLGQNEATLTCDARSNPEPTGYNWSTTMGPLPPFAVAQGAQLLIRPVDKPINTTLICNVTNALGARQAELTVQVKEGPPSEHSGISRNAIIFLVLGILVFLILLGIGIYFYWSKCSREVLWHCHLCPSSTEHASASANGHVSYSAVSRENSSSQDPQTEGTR", "test": "microarray of about 6,000 human membrane proteins"}, "hCD155-Fc [1]": {"target": "T4, hCD155-Fc (human, UniProt P15151 21-343, limits assumed)", "T4 construct": "not shown: Fc, not identified", "T4 sequence (looked up)": "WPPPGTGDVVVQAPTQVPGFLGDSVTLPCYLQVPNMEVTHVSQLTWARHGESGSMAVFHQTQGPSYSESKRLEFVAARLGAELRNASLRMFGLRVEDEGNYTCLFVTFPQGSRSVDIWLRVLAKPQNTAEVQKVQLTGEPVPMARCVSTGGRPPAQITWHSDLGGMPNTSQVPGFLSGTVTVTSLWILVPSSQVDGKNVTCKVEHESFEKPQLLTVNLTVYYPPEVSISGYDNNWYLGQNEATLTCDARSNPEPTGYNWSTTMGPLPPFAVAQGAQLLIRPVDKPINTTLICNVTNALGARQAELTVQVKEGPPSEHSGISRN", "test": "ELISA as printed: CD155-Fc capture, goat anti-hOX40L detection, anti-goat HRP (legend says CD155PVR-His capture, IgG detection)"}, "[2]": {"target": "T5, recombinant human CD155PVR (human, UniProt P15151 21-343, limits assumed)", "T5 sequence (looked up)": "T4 sequence (looked up)", "test": "biolayer interferometry (Octet), hPVR; concentration not given"}, "human LTBR-His": {"target": "T6, human LTBR-His (human, UniProt P36941 31-227, limits assumed)", "T6 construct": "also called hLTBR-His", "T6 sequence (P36941 31-227 limits assumed)": "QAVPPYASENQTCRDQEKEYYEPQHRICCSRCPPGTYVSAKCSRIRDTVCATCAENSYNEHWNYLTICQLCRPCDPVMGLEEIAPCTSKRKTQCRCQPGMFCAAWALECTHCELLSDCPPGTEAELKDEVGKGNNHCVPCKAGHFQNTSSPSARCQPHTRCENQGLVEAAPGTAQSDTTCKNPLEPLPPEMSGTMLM", "test": "Dual ELISA: hCD155-Fc capture, hLTBR-His detection, 6x His HRP"}, "hCD155-Fc [3]": {"target": "T4, hCD155-Fc", "test": "Dual ELISA: hCD155-Fc capture, hLTBR-His detection, 6x His HRP"}, "recombinant human LTbR": {"target": "recombinant human LTbR (human, UniProt P36941 31-227, limits assumed)", "sequence (P36941 31-227 limits assumed)": "as above", "test": "biolayer interferometry (Octet), human LTbR"}, "CD47-His": {"target": "T7, CD47-His", "T7 construct": "ELISA capture protein used with both murine and human chimeras", "test": "ELISA: CD47-His capture, IgG detection"}, "[4]": {"target": "T8, mouse CD47 on CHO-K1 cells (mouse, UniProt Q61735 19-303)", "T8 construct": "whole, on cells; also called mCD47 engineered cell line; mCD47 over-expressing cell line", "T8 sequence (looked up)": "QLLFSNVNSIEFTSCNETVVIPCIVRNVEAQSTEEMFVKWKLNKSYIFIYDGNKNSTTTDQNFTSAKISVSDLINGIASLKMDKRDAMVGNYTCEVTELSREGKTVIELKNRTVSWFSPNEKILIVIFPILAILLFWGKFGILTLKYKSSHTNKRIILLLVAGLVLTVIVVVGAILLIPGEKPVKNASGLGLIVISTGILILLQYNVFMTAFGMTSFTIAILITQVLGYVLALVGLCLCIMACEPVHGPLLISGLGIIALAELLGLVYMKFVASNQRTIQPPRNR", "test": "flow cytometry on CHO-K1 cells expressing murine CD47"}, "[5]": {"target": "T9, mouse OX40 on CHO-K1 cells (mouse, UniProt P47741 20-272)", "T9 construct": "whole, on cells; also called CHOK1-mOX40", "T9 sequence (looked up)": "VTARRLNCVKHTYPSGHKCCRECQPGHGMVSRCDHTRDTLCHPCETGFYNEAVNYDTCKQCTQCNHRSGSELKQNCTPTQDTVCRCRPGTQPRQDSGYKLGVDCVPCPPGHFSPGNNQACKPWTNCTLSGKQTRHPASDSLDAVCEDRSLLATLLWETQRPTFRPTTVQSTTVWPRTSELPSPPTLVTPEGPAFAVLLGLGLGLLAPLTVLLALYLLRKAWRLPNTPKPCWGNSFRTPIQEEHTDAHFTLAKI", "test": "flow cytometry on CHOK1-mOX40 cells"}, "OX40-Fc": {"target": "T10, OX40-Fc", "T10 construct": "Capture protein of the dual ELISA", "test": "Dual ELISA: OX40-Fc capture, CD155-His detection, 6X His HRP (signal needs both OX40-Fc and CD155-His bound)"}, "[6]": {"target": "T11, mouse PVR on CHO-K1 cells (mouse)", "T11 construct": "whole, on cells; also called CHOK1/PVR; mPVR engineered cell line", "test": "flow cytometry on CHOK1/PVR cells"}, "CD155PVR-His": {"target": "T12, CD155PVR-His", "T12 construct": "ELISA capture protein used with both murine and human chimeras; also called CD155-His", "test": "ELISA: 'CD115/PVR Capture' as printed (legend: CD155PVR-His), Fc-HRP detection"}},
  "data": [
    {"binder": "B1", "values": [
      {"measurement": "binding result", "setting": "Galectin-1", "result": "binds"},
      {"measurement": "binding result", "setting": "NECTIN4", "result": "binds"},
      {"measurement": "binding result", "setting": "TNFRSF4", "result": "binds"},
      {"measurement": "binding result", "setting": "PVR", "result": "binds"},
      {"measurement": "binding result", "setting": "hCD155-Fc [1]", "result": "binds"},
      {"measurement": "binding result", "setting": "[2]", "result": "binds"}
    ]},
    {"binder": "B2", "values": [
      {"measurement": "binding result", "setting": "human LTBR-His", "result": "binds"},
      {"measurement": "binding result", "setting": "hCD155-Fc [3]", "result": "binds"},
      {"measurement": "binding result", "setting": "recombinant human LTbR", "result": "binds"},
      {"measurement": "binding result", "setting": "[2]", "result": "binds"}
    ]},
    {"binder": "B3", "values": [
      {"measurement": "EC50 (read off the curve)", "setting": "CD47-His", "result": "~4", "unit": "nM"},
      {"measurement": "EC50", "setting": "[4]", "result": 18, "unit": "nM"}
    ]},
    {"binder": "B4", "values": [
      {"measurement": "EC50", "setting": "[5]", "result": 1.7, "unit": "nM"},
      {"measurement": "EC50 (read off the curve)", "setting": "OX40-Fc", "result": "~8", "unit": "nM"},
      {"measurement": "EC50", "setting": "[6]", "result": 4.63, "unit": "nM"},
      {"measurement": "EC50 (read off the curve)", "setting": "CD155PVR-His", "result": "~4", "unit": "nM"}
    ]}
  ]
}
